Assay results taken from patent US20230192796A1 (published 2023).

Biological target: T1, Human IL-10Rβ on cells (Daudi, Jurkat, YT-1, THP-1 cell lines; primary human PBMC populations) (human, UniProt Q08334 20-325)
T1 sequence (looked up): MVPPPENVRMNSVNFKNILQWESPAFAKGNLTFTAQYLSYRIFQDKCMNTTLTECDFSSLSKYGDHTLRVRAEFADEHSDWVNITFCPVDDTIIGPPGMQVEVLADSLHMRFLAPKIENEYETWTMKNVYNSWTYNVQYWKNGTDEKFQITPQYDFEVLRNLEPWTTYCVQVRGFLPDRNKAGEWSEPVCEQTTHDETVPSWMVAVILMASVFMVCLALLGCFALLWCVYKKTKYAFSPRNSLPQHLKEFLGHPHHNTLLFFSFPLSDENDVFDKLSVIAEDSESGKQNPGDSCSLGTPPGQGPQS
Assay: cell-based or functional assay

ratio of super-10 to 10-DE STAT3 Emax in Daudi cells: > 20 ratio (super-10:10-DE)
ratio of super-10 to 10-DE STAT3 Emax in THP-1 cells: ~1 ratio (super-10:10-DE)
B1: Affinity matured IL-10 clone 5.1 (Super-10), soluble (ligand)
chain: SPGQGTQSENSCTHFPGYLPNMLRDLRDAFSRVKTFFQMKDQLDNLLLKESLLEDFKGYLGCQALSEMIQFYLEEVMPQAENQDPDIKAHVQSLGENLKDLRLWLRRCHRFLPCENKSKAVEQVKNAFNKLQEKGIYKAMSEFDIFINYIEAYMTMKIRNHHHHHH
